The assay concerns human pluripotent stem cells provided at high cell density. As to the kind of experiment: Hematopoietic cell formation in high cell density differentiation culture. Format: cell-based. To be noted: with 50 ng/ml BMP4. The protocol:
FIGS. 1A-1F concern hematopoietic cell differentiation in accord with the invention. […] Cells in high cell density methods of the experiments depicted in this figure were plated at 1.1×10^5 cells/cm^2. Cells in low cell density methods of the experiments depicted in this figure were plated at 1.8×10^4 cells/cm^2. The photographs of FIG. 1B show cell morphology of cells of each culture at day 10. […] The hematopoietic cells could be cryopreserved at day 10 (90% FBS+10% DMSO) and hemangioblasts can be cryopreserved at day 6.
FIG. 2A-2D show Notch and YAP signaling in the low and high density cell cultures. FIGS. 2A-2B show immunostaining of YAP and NICD1 (Notch intra-cellular domain). […] Cells cultured at high density were treated with or without 10 μM DAPT (a Notch inhibitor) from day 2-10.
FIGS. 3A-3E show BMP4 signaling in the low and high density cell cultures. […] Cells were cultured at high density with or without 50 ng/ml BMP4. […] Cells were cultured at low density with or without LDN (a BMP signaling inhibitor).
Cell-cell contact regulates arterial endothelial cells and hemangioblast cell fate determination—Endothelial-to-hematopoietic stem cell transition occurs in aorta-gonad-mesonephros region. We therefore investigated whether human pluripotent stem cell-derived arterial endothelial cells can be reprogrammed into hematopoietic stem cells. […]

Consider one molecule from patent publication US12497593B2, “Generation of hematopoietic progenitor cells from human pluripotent stem cells” (Wisconsin Alumni Research Foundation, priority 2018, dated 2025).

B1: BMP4: Bone Morphogenetic Protein 4, added at 50 ng/ml to high density culture (protein, UniProt P12644 293-408, looked up)
Bone morphogenetic protein 4: SPKHHSQRARKKNKNCRRHSLYVDFSDVGWNDWIVAPPGYQAFYCHGDCPFPLADHLNSTNHAIVQTLVNSVNSSIPKACCVPTELSAISMLYLDEYDKVVLKNYQEMVVEGCGCR
Take B1: the “hematopoiesis (total hematopoietic cell number, cell morphology at day 10)” value is “promoted hematopoiesis”.
